Target: nesprin-2G SR11-13 (spectrin repeats 11-13 of human nesprin-2) (human)
Test: co-sedimentation

Sequence of FHOD1 wild-type, full length (Q9Y613 whole entry): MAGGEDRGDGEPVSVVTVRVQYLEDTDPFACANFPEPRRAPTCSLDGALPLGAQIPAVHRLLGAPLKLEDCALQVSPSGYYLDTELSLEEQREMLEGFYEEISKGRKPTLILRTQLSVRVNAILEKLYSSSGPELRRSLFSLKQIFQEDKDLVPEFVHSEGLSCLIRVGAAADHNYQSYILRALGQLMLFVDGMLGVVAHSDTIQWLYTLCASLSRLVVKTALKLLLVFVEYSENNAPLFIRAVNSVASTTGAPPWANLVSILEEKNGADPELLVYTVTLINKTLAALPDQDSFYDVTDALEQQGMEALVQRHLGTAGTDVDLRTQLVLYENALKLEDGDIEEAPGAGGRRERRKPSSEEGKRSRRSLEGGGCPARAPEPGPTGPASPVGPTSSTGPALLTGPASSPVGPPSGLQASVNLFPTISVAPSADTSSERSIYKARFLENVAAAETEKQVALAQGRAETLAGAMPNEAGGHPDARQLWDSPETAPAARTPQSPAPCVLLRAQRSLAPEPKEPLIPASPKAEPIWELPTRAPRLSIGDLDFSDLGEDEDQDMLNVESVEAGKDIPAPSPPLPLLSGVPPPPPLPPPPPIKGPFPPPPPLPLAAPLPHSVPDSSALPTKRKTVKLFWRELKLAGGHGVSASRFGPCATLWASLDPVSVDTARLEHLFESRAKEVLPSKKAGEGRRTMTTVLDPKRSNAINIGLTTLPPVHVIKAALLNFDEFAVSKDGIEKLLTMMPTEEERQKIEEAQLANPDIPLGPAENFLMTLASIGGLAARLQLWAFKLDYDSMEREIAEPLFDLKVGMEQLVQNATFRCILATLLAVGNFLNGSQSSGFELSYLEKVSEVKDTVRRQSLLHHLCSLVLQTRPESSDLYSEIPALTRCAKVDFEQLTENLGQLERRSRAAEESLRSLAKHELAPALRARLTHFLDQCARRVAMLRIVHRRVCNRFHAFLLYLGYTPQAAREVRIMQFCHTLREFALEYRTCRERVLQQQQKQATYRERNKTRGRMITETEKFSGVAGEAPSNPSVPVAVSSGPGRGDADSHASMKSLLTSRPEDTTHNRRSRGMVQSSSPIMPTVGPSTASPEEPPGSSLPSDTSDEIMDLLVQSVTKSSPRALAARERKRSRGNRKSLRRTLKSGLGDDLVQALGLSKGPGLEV

Row | Substance | stoichiometry N (scale: FHOD1 WT per SR11-13) | stoichiometry N (scale: FHOD3 WT per SR11-13)
1 | FHOD1 wild-type, full length (from UniProt Q9Y613 1-1164) (natural protein) | 1.18 | 
2 | FHOD3 wild-type (from UniProt Q2V2M9 1-1422) (natural protein) |  | 1.3
